The text below walks through data of patent US20260124324A1, “PHOTOCLICK CHEMISTRY OF SILK FOR TEMPORARY UV TATTOOS” (Trustees of Tufts College, priority 2023, published 2026).

For data set [1] the following is noted: literature values of related compounds; cited from earlier work.
For data set [2] the following is noted: DAT precursor, UV-Vis absorption.
Protocol: Spectroscopy was performed using a Synergy HT plate reader in with sample Corning Costar UV-transparent 96 well plates (Corning 3635). Initially samples were diluted to 1 mg/mL in either IPA or DIW and a dilution curve was made with each step reducing the concentration by half. The concentration chosen for measurement was the most concentrated sample that had the peak of interest entirely below 1.0 absorption units. When an appropriate concentration was found 100 μL of sample was then loaded into each well with samples loaded in triplicate. If the standard deviation between replicates exceeded 0.05 AU the measurement was repeated with fresh samples.
For data set [3] the following is noted: pyrazoline bound to SilMA, derived from the named DAT. On the procedure: Fluorophores bound to either silk or PEG-DA were generated by dissolving a DAT precursor to a final concentration of 100 μM in water for silk-bound fluorophores and either DIW, IPA or ethyl acetate (EtAc) for PEG-DA-bound fluorophores. These were reacted by exposure to 302 nm light (specs) for 10 minutes under constant stirring. To an opaque black 96-well plate (Corning 3915) was added 3 separate 100 μL aliquots of fluorophore solution. These were measured by a Molecular Devices SpectraMax M2 plate reader, exciting at either 300, 365 or 405 nm and recording spectra from 25 nm […] the excitation wavelength down to 650 nm with a 5 nm resolution.

A short description of data set [4]: Patterned fluorescent films (SilMA or SF/PEG-DA). The format is physicochemical. The procedure:
Multispectral imaging was performed with a Nuance FX multispectral imaging system with a Canon macro lens and illuminated by 365 nm light. Exposure times were varied by sample and were selected by automatic exposure timing in the acquisition software. Images were processed using Nuance software and spectral elements were picked by hand from at least 20 sample locations. Raw processed spectra had large discontinuities introduced by the internal monochromator, which were removed with a custom algorithm.
A glass coverslip (22×22 mm) was placed onto the vacuum chuck of a Laurell WS-650 spin coater. Onto the surface was pipetted 100 μL of silk solution (7.0% w/w silk fibroin, 0.7% w/w polyethylene glycol diacrylate), which was manually spread to cover the entire surface. […] The sample was then water vapor annealed by being placed in a Memmert UN 30 Plus humidity-controlled oven at 45 C and 90% relative humidity. A timer was started once the oven had reached 90% humidity after then drop due to sample addition and allowed to sit in the oven for 5.0 minutes. Once removed the sample was loaded onto the vacuum chuck again and 30 μL of DAT solution (5 mg/mL DAT in isopropyl alcohol) was dropped onto the surface. A combined spreading/evaporation program was run with a single 20 second phase (4000 RPM, 250 RPM/sec). The sample was then covered by a photomask and exposed to 302 nm UV light (Labortechnik UVLMS-38 8 Watt UV multiwavelength lamp) to induce the photoclick reaction. If a multi-emitter film was to be fabricated, then a PDMS isolation layer must be applied if the lower layer is composed of SF/PEG-DA. To form the isolation layer, Sylgard 184 monomer was mixed with curing agent in a 10:1 ratio and 500 μL was applied to the glass slide by spin coating (5 sec, 500 RPM spread, 30 sec 5000 RPM thinning, 500 RPM/sec acceleration). This was cured by heating the slide on a 80 C hotplate for 30 minutes. The subsequent layer could then be applied in an identical manner to the first. If SilMA was used as the lower layer, the isolation layer is not needed and the second layer can be applied directly.
Films were fabricated with a spin-coating process, where either SilMA or a mixture of SF and PEGDA were dropped onto glass coverslips and spun to produce uniform films. Afterwards the films were water vapor annealed to recrystallize them and lock in the position of the polymer(s). Next a solution of the DAT dye in IPA or DI water was drop cast onto the surface, then spun to remove excess solution. This film was then exposed to 302 nm UV light through a quartz photomask or steel shadow mask for 30 seconds. The DAT impregnated films reacted promptly and attained 60% of their full fluorescent brightness in 30 seconds and their maximum brightness in less than 5 minutes (FIG. 21A,B). […]

For data set [5], the system named is human dermal fibroblasts (hDFs). The data set is described as follows: Fluorescence microscopy of tattooed 3D skin-simulating scaffolds. Format: cell-based. Particulars: 7 days after tattooing, phalloidin and DAPI staining. On the procedure: Cell-laden 3D scaffolds were fixed in a 2% formalin solution in PBS for 2 hours with gentle oscillatory mixing. All subsequent washing steps were performed for 30 minutes with oscillatory mixing with the indicated solution. The formalin solution was then decanted, and the scaffolds were washed 3 times with DI water. The cell membranes were permeabilized by washing the scaffolds with acetone solution (50% v/v acetone in 1×PBS) for 30 minutes. The samples were then washed 3 times with PBS-T (1×PBS, […]), then blocked with 1 mg/mL BSA in PBS-T (1×PBS, 0.1% Triton X-100). Actin was stained with phalloidin-488 (Invitrogen A12379) for 1 hour, then washed 3 times with 1×PBS. Nuclei were stained with DAPI (Invitrogen D3571) for 30 minutes then washed with PBS 3 times. Scaffolds were stored in 1×PBS at 4 C until imaged.
Fixed and stained samples as well as tattooed imaging phantoms were imaged with a Keyence BZ-X710 all-in-one fluorescence microscope. The DAPI filter channel (ex/em 355/450) was used to image both the DAPI stain, fluorescent pyrazoline-laden microparticles, and aqueous SilMA-pyrazoline tattoo inks. The GFP channel (ex/em 488/510) was used to image the phalloidin-stained actin.
Silk fibroin solution (5% w/w) was pipetted into a 24 well plate (1.5 mL per well) and frozen at −20 C. […]

The test system is the same in data set [6]. In words: 2D cell morphology by bright field transmission microscopy. The format is cell-based. The conditions noted are these: positive control, 1% in media, 24 hour incubation.
Description: Images were taken with a Motic AE2000 inverted microscope in bright field transmission through the bottom of transparent 96 well plates. Images from 2D cell culture were processed in GNU Image Manipulation Program V 2.10.12. Contrast was enhanced by changing light and dark levels to maximize the dynamic range of the image. The illumination artifacts were removed by creating a duplicate image on a separate layer and blurring it with a Gaussian blur strength 12.0. This layer was placed below the normal layer, and the two layers were mixed in the “Grain Extract” mixing mode. This process inverts the colors, so the color was inverted again to restore the original orientation.
Cellular morphology is an independent method of assessing cellular health. When healthy, cells like hDFs will adhere to flat plates in 2D culture and multiply rapidly, until they form a confluent layer. The pressure from surrounding cells tends to cause the cells to adopt an elongated and tubular morphology, often aligned with their neighboring cells. When cells are damaged, they will often suffer cytoskeletal damage and will lose their elongated morphology. Dead HDFs will be at the extreme end of this trend, appearing as very small spheres, devoid of cytoskeleton entirely.
Data set [7] shares this test system. In words: 2D metabolic toxicity assay (MTT). The conditions noted are these: positive control, 1% in media, 24 hours.
Data set [8] can be described thus: Fluorescence titration (pH dependence, pKa) of PEG-DA-bound pyrazolines. The format is physicochemical. On the procedure:
A 100 mL beaker was placed on a stir plate and filled with 50 mL of either deionized water or isopropyl alcohol and a magnetic stirrer. Fluorescent pyrazoline bound to PEG was added to a final concentration of 1 mg/mL and stirred until homogenous. An Ocean Optics SR fiber spectrometer was attached to a UV-Vis optical fiber (200-800 nm, 200 μm core diameter) and the fiber was mounted such that it was normal to the surface of the liquid. A 365 nm LED was placed at such that it illuminated the beaker from the side, perpendicular to the orientation of the fiber. If deionized water was used as the solvent, a pH probe was immersed in the liquid as well. The LED was switched on and the spectrometer exposure time was adjusted until the fluorescent peak reached at least 1000 counts or 3 seconds of exposure, whichever occurred first. During capture 5 exposures were averaged and smoothed by a 9-point moving average. […]
To determine the exact pH dependance of the fluorescence transition, fluorescence was monitored during an acid-base titration with a custom optical set-up (FIG. 12). […]
Resulting titrations generally produced either a sigmoidal curve with high and low pH stable regimes (FIG. 14A) or a static, pH independent fluorescence (FIG. 14B). […] The pKa values estimated by fluorescence are generally within their estimated pKa windows, with the exception of the amino derivatives (FIG. 14D). […]

Read-outs that look alike come from different tables or passages of the source.

As to `OB(O)O` [boric acid], the pKa in data set [1] is given as 9.15.

As to `Nc1cccc(-c2nnn(-c3ccccc3)n2)c1` [DAT-9, 5-(3-aminophenyl)-2-phenyl-2H-tetrazole], the “Excitation λmax” value was 271 nm in data set [2] (peak 1), 365 nm in data set [3] (pH 3) and 375 nm in data set [3] (pH 10). Besides, the “Emission λmax” value was 455 nm in data set [3] (pH 3) and 460 nm in data set [3] (pH 10). Also, the “fluorescence of resulting pyrazoline in film” value in data set [4] (PEG-DA/SF films) is reported as “visible”; in data set [4] (SilMA films) it was “nearly completely quenched”.

Take `Oc1ccc(-c2nnn(-c3ccccc3)n2)cc1` [DAT-10, 5-(4-hydroxyphenyl)-2-phenyl-2H-tetrazole]: the “Excitation λmax” value came to 253 nm in data set [2] (peak 1), 281 nm in data set [2] (peak 2), 300 nm in data set [2] (peak 3) and 355 nm in data set [3] (pH 10). In addition, the “Emission λmax” value in data set [3] (pH 3) and in data set [3] (pH 10) was 435 nm in each case. Moreover, the “fluorescence of resulting pyrazoline in film” value in data set [4] (PEG-DA/SF films) is “visible”; in data set [4] (SilMA films) it was “nearly completely quenched”.

As for Triton X-100, the “cell morphology / localized cytotoxicity in 3D scaffold” value in data set [5] was “only background fluorescence”. Further, in data set [6], the cellular morphology entry is given as “small hard spheres indicative of dead cells”. Further, the “metabolic capacity (MTT)” value in data set [7] is reported as “completely destroyed the metabolic capacity of the cells”.

In the case of `O=C(O)c1ccc(-c2nnn(-c3ccc(B(O)O)cc3)n2)cc1` [DAT-5, 2-(4-boronophenyl)-5-(4-carboxyphenyl)-2H-tetrazole], the “Excitation λmax” value in data set [2] (peak 1) is 285 nm; in data set [3] (pH 3), 370 nm; in data set [3] (pH 10), 380 nm. Besides, the “Emission λmax” value in data set [3] (pH 3) is listed as 505 nm; in data set [3] (pH 10), 475 nm. Further, the “pH at which highly emissive state is centered” value in data set [8] was determined as 6.

The pKa is the negative logarithm of the acid dissociation constant.
